Assay results from PMC8329185.

Legend:
GFP-SRSF7 = assay: bead halo assay
GFP-NELF = assay: bead halo assay
GFP-CPSF6 = assay: bead halo assay
GFP-RPS6KA3 = assay: bead halo assay
GFP-TRAP1 = assay: bead halo assay
SNUPN (Homo sapiens) = SNUPN (Homo sapiens) (UniProt O95149); conditions: cited from earlier work
EIF5A (Homo sapiens) = EIF5A (Homo sapiens) (UniProt P63241); conditions: cited from earlier work
Chain of EIF5A (Homo sapiens) (P63241 2-154): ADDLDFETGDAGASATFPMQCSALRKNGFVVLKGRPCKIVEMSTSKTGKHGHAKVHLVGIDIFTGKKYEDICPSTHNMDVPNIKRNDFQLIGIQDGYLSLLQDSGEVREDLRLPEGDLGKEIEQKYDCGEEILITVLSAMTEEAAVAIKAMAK

Chain of SNUPN (Homo sapiens) (O95149 whole entry): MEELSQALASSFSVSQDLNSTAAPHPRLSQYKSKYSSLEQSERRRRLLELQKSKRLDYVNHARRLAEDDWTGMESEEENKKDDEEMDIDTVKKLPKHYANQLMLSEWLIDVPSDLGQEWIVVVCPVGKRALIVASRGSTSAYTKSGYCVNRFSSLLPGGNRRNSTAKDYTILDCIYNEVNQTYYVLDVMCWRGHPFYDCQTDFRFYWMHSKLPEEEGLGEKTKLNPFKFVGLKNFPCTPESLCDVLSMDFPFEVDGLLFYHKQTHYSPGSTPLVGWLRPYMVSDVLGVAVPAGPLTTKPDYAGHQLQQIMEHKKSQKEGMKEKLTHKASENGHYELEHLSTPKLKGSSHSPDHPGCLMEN
Chain of CRM1 (O14980 whole entry): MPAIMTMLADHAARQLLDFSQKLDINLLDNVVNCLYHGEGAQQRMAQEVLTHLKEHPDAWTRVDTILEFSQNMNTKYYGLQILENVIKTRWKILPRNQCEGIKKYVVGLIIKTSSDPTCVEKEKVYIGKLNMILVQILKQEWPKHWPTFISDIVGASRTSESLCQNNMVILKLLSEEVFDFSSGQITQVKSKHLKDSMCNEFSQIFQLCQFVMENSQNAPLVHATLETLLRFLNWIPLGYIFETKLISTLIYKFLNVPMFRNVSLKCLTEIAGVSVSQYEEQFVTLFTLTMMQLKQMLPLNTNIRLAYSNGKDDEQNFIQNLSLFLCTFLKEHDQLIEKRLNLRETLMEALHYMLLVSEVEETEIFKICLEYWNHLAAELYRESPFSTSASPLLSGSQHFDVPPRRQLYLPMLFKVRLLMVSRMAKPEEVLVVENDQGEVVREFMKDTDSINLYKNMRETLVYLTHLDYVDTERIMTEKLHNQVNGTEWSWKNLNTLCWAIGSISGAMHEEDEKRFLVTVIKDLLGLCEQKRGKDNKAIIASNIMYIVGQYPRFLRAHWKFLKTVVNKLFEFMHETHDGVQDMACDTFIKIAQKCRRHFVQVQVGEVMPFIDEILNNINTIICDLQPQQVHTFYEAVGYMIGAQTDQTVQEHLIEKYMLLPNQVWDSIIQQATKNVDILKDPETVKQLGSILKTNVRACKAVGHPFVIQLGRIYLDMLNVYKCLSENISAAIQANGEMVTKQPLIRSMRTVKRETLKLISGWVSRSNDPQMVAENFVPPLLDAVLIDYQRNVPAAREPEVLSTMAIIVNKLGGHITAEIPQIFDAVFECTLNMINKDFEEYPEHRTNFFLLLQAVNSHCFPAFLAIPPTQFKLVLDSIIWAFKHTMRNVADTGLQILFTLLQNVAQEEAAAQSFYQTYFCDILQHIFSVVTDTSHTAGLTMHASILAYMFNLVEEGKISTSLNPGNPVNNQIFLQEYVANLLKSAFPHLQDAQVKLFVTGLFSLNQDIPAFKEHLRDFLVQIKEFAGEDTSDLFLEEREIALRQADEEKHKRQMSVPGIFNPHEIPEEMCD
Chain of Xpo4 (Q9C0E2 whole entry): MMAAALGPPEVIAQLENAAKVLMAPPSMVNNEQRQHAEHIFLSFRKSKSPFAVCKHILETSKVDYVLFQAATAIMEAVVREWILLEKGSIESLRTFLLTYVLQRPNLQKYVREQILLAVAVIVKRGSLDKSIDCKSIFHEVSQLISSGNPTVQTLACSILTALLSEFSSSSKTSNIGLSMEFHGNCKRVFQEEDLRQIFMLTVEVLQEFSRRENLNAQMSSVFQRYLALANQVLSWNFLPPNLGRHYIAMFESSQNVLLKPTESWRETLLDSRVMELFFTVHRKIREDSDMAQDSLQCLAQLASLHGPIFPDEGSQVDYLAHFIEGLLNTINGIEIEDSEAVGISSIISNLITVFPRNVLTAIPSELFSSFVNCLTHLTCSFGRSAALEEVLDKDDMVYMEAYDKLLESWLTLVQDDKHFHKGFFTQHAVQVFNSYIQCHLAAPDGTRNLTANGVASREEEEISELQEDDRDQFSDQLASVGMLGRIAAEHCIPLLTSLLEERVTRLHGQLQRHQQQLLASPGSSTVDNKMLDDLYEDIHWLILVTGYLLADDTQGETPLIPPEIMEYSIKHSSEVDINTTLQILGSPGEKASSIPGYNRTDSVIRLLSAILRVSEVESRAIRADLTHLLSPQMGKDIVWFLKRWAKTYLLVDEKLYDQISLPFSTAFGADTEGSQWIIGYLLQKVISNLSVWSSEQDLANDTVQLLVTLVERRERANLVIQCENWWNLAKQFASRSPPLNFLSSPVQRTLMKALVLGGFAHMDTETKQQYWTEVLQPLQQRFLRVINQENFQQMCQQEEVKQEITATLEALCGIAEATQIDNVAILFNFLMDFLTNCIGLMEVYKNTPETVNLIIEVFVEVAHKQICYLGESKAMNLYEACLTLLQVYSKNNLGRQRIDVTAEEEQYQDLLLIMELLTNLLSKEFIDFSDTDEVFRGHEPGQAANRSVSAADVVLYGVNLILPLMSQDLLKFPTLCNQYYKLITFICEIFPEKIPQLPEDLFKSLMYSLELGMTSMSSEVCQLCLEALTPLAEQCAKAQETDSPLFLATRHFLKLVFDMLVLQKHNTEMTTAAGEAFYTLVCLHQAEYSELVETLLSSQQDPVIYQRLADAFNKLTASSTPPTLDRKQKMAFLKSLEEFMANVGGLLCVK

Row | Substance | response (GFP-SRSF7) [GFP/mCherry] | response (GFP-NELF) [GFP/mCherry] | response (GFP-CPSF6) [GFP/mCherry] | response (GFP-RPS6KA3) [GFP/mCherry] | response (GFP-TRAP1) [GFP/mCherry] | Kd (SNUPN (Homo sapiens)) [nM] | Kd (EIF5A (Homo sapiens)) [nM]
1 | CRM1 (from UniProt O14980) |  |  |  |  |  | 10 | 
2 | Xpo4 (from UniProt Q9C0E2) |  |  |  |  |  |  | 2

Further lines, with some results ahead:

Row | response (GFP-SRSF7) [GFP/mCherry] | response (GFP-NELF) [GFP/mCherry] | response (GFP-CPSF6) [GFP/mCherry] | response (GFP-RPS6KA3) [GFP/mCherry] | response (GFP-TRAP1) [GFP/mCherry] | Substance | Kd (SNUPN (Homo sapiens)) [nM] | Kd (EIF5A (Homo sapiens)) [nM]
3 | 0.67 | 2.89 | 0.46 | 0.13 | 1.35 | GST-mCherry-TrnSR (WT) (from UniProt Q9Y5L0) D409R |  | 
4 | 0.94 | 1.14 | 0.15 | 0.09 | 1.11 | GST-mCherry-TrnSR (WT) (from UniProt Q9Y5L0) E398R |  | 
5 | 0.26 | 0.5 | 0.15 | 0.37 | 1.16 | GST-mCherry-TrnSR (WT) (from UniProt Q9Y5L0) R671E |  | 
